Reference: the domain aggregation screens of Martell et al. (2025)

Experiment: soluble fraction after stress (log2 fold change); higher = more stays soluble; pooled small domains, quantitative proteomics
Conditions: stress: 75 degC
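Further: 20 min heating vs room temperature control held 20 min.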

Sequence | soluble fraction (log2)
HMKEETYHYTVRYVTDGGDILASYEGKATKDSVFFPEVKTFDGYTAVRGEEPMFHLVSDHAVFQIVYQKNG | -1.17
HMTPDLSEFKERLRQILPGEPIEVRTANDGIVLSGTVTSIAALDRALDLAERYAPDKVSNLLSVG | 0.149
HMLTGADAEKATAAAQAEFPGGTVLRVETDADGTYEAHVRKADGTEVEVKMDKDFKVTSVEE | 0.142
HMEFTFTLPRGYIDDTGMIHREGTMRLANAADEILPLKDPRVQQNPGYLTIILLARVITKLGSL | 0.33
HMEKIRIQKYLSERGVMSRRAADSALAEGRIAVNGVTARPGDKIDPSSDTLTIDGRIVTTGTAP | -0.0992
HMYSLSELERIKNFLTGYMSDYSIMMLDANEITNQVDISLKDYSDDNIESIKAAVLSHGGKTDYLNFIDDS | -0.926
HMFIGFLHQLKEAGVPVSIREYLDFLSGLDKGITNLNTNSFYHFARASLVKDERHYDRFDRTFSEFFEGAL | -3
HMAEMLQDVLNMLSAKDREILVRYYYYYESVKQVAAEMQMSESAVKMRMSRARKKMQQELIDKG | -4.61
HMESRDRVRQASAAGYRFMSTMAGHEPGFEEASRALFAGDQTAFEARITAWPVDVQTHLKKILAEAFTT | -1.17
HMDTNVKLLSPKQADFFASKLANNQNFSSKFAKVGEDMQPFIERISSELQQDISQVIVYMPYLLESGFKQ | -0.328
HMITTLLVENLQDVGMRLDHYLVYNLIKYSRSHIQSFIRSGDIRVNGKKVKTGYSLELKDLIHIEMP | -3.66
HMDGIRLYPGLMIEHKNFGRGQVVSVNRERGTFTAFFGKNGTRTLTIQILKTDTVRPLASQKAGK | -0.594
HMGIKYTNQRVEILNFLKDNLSHPTVDDVYEGVKKKLTRISKATVYQNLKFLASKGLIQEVNIKGVSRFEP | -1.98
HMIAWNFDTMKESLSEMERVDYQEFIKAFLSLELSISDRTILNQVYQDYMDEDDLSLISDELRV | 0.0602
HMDWPDDETIARIYALIKSDISSQARKVMELRFSEGMPFARIAAAMGISETAVYRHLSHALTVIRQKLN | -2.14
HMIQIQDIAFSEFLQELDKGNIVEVNIKGDLINGDLINGKKFKTVAPYDPNLVEKLSKQNVRINVEPIN | 0.157
HMWTKKELWNAIAKLPKKQRTVVMMRIAQNLPYKDISEITGMSIGSAKVNYHHAVNSLKQWLS | -0.746
HMNSLKNKNNLIALVGASNDKNKYGNKILLDLVSKGHNVVPINPKEDTVAGLKSYNNVSELSEKPSI | -0.523
HMNTDVEKQKVFTALFDDYFRRNSMTSLEKQLFLTALKTNFQNAQKTVAKDHPYYATYSLIISAIENYR | -0.525
HMSIAEMSGARKSAILLLALDEDSAAEIFKYLSAGEVQEISMEMAKLNQVSHDDMKAVLEAFHKETEEFV | -0.821
HMTTVTVGSKVRVKAGATFSDGAKPFAEVYNTVYDVQLLSHNGKEARIGIGDQWTGWIYISDLYLANQPAP | -1.84
HMQQEAVSGKLLQLDLAKKEGRLSTDLGREVLFHIPKPELFVHLSVGQRIIIKLDAGQEAVGV | -0.178
HMLAEEAFNKQAATAGYVYRDGSYHPAASVAQYDAMPRNYRTNTMAQELSRSQVESQLQQSQ | 0.752
HMKLHQDLQIKVIDAANNKVEFIDTATGTSLATRTLDVNGVSKARGFEATLYGVVEDNDVFHIA | 0.121

Sequence | soluble fraction (log2)
HMDTETLIDKYQLNASEAAVLRFMDKNRDSLRDLGIRDVARASYVSTATIVNMAKKIGYSGYSELVFAYGS | -3.69
HMPSNVKIPDVTGKTVAQARSAIEAAGLKVGKEKDEYSDSAKKDSVIRTNPQAGTQRREGSTVDLIVS | 0.175
HMAFAQMAQEAAKGKDDFNDLRQEMEAVIKEQPHILLMAQFGQNPYEIAYQEAKRRKAQDQQQQQ | 0.877
HMDQTIFFGQQKAINNLSTDAGLSATELDEYLKKRYKRPLYQLTQAEGAEIIKGFQDGALSRSSILDYTK | 0.0434
HMTFPIDINRADTEQLTALPGIGEVLAKRIIAYREENGSFLSTDELKNVEGIGEKRLEAIVDLITIG | 0.145
HMSSPVGIAQATTYVYVRAGHSMQAAKVGVLSPGEKVGVTGRSAQGFSEVVYNGVHRWVGSRYLSPT | -4.43
HMKKIDVEVVRSQLIAWMADNGKSQAEVSKSMGISASALSMFIKGTYTGDNEQIGRKAAALMDLVHRQSA | -1.41
HMHSPTFYVHVVGQVKVPGVYELEVGSRLFDAVIAAGGFKDDADQASVNLARPLSDGEQIVVLKLGDQ | -0.777
HMSLPTSDWKRALSLFDEALSLPPDARDAWLAHTIAREPAVSPLLQKLLGAHRRVETNDILATLPR | -0.534
HMADYYETLGVERTASEEDIKRAYRKMSRKYHPDIAGPEFEEKFKEVNTAYEVLSDPDKRRMYDAGVDPND | 0.0815
HMTDFESYTVRVTATNLNIRKGAGTNFHSAGYIKPGVYTIVEEADGKGATRWGKLKSGMGWISLDYAKK | -1.04
HMTTELDTTAITPIIQKVLKANPDVVAKYKAGQQQVIGFLMGQVMRELSTKPNPKELQSLIVAQLQQA | -0.0252
HMVNEALDEFFVGLKNLYESATGKPAIAGAHFDGEPKTDFEKLMYLGYQIIRPAQAYPSALKAYERAIARS | -0.145
HMRPLTPLEKLTPDADGKYYHIVQSGETLSWIAKLYETTAEKLQAWNNLFSSDIFPNQKLLLQVTPP | 0.134
HMFDLDIEQIANDLKHGVMPNLYGLSLQDALYLLEAKGIRVKVAGSGSVVNQSIKTGAYVGSGSVLKLEL | -1.78
HMIDYIKYTVDGKTYELINNWDGTWSRELEAPLVAGRYDLLLEISQNGLVTYIDSSDPRYEFYLDVI | -3.02
HMESLGEKIKNIRISNNLKQSELADILHISEKTISSWENNRTTPDLNMIYKISNYFKKSFYYLISDDYI | -0.908
HMVLELRIGQIVRGVLLQLVGEREGIVSVGGVPVRARLEAEIPLGRGVMLQVQPGSDANNILLKPV | -3.01
HMAIDYYQTLINLGYKLQDRGDYWQTSAIHRGGDNPTALQIYKNTGVWKDYVSGGGFKPFKALVEKSD | -0.944
HMGGNVYAYRLTASVKSGEQIPANKIEKVKMLSSDLPTNYVPDTVNVTAYKSKLDLQAGTILSTSLLYEN | -0.591
HMKDITAVISKKKGRDYYYIIVSYHLSNGKRVQKWIKTEFSVNGNNKRKLEQKRIEILQEWQNKLV | -1.04
HMEVTLGLGSMVRLLGEPYLGSTGRVVELPDQAERFASGLTAKVAVVERHDGELIRVPVTNLLLME | -1.25
HMYTVQQLARLAGITPRTLRHYDAIGLLKPTRVGENGYRYYGSEALLRLQSILLYRELDMPLEDIRRVLDS | -3.5
HMTNIQFINLKMTDNHPWIHQYIKDIILPPQTRIVMIKRNDIKTIPKGERRIEKDDELILSAFESQT | -2.06

Sequence | soluble fraction (log2)
HMTGGLTQEQISQLRMLTPQQIEQLRQLQPQQVEMLRQLRPEQVMLLTQLEPQQIMAFMRLEPSVIMQL | -0.261
HMSGDYRPLYPNLPESEKSEAFNLLAGSALPARLDDRTGDIMVPADRYYEARMILANAGFAD | 0.17
HMRIAQYRQIENDLLEQINLGYYKKGDLIPTELELSATYHVSRVTVRKATDNLVAKGILQRVAGVGTFVSR | -3.14
HMGFALLIAIERTGNTTYFVKLTLIKKGSDSDVLKDSFSVSQGDLVGTATYDSVIANRIREKTAAMWQKAT | -2.76
HMNPAYTDSRMKTFLEELPVMKASLSQKHVTRFLVWQEYIGRHPDGYGKSQFFYHLKQNLVAAKG | -0.391
HMEYEETMSQIKHNLNLLPRQQRVIIEMAKFDELTPAEIAKQLGISVQTVRNQLSTGLKKLRQLL | 0.0391
HMVTVNAFGKSGPEPAAMTKEALAKGADEVRVIVDSPTAAASVRDFLIGAGLRVQLQDDEGQLIVVGEKK | 0.318
HMVKSYEVPDVSNLTVLEAEAKLQEMGFEIDEEQKEISSSDIESGRVVKTSPQAGSKRKEGAIITLYVSSG | 0.65
HMEELTDSELNNLYRELFIARSNASDGVGIIEQKTIKGITYRLSNDNNYLIKELGNKEYIYKNGVWEEYT | -0.155
HMVTDTGAIEKVIDEVIAANPKQVQEIADQRAAGHEKPKTLGWLVGQIMKASGGKVNPAAVNEILLKKLG | 0.0887
HMSLDLERAVALLSLPRPVGNHPEDGELVEAGIGRYGPYVKHGSKYANLPDADEVFTIGMNRAVEVLAAK | -0.109
HMGVTDSSYNVLRRQILEMLSVQQRTPADLARLIEADKEEIAAVIRFLLDKGEIQMEDGMLQTK | -0.821
HMVETDQESSLIQAIYKYFEITGDNTFFDEKVGEKTVADRMEWAMDYLIQNRFSEEYGLIWGA | -0.285
HMDRKFFFNEQYEDYINSDLKVKFMNDSGSKKSFQGELTKVTPSDLFLESEKESVKVPFSSIIQANLI | -0.197
HMQNDDLTKLDGIGPYIEQRLNDIGIYNYEQLSKLNTEDIQKITELIDFFPGRIERDNWVSQAQLLKI | -0.515
HMDEKVTIPSVSGLLLSEAKTKLVDAGLTVETVYDDESKEAKDTVLSQSPLQYGKVDKGTVVTLTVSSGKG | 0.332
HMSAVIGTATVTTSSGSLNLRESASLYSRVIRTIPRGATVDVLSRDTSWSRVRYAGSEGYVLNQYLTFQT | -2.1
HMNPTTQIQYNLPKSEFVSIYIYDLIGNRVKSLINNYQDAGYKSVYWDAMNDLGQPVSAGMYIY | -0.0727
HMDEQLAWLYRKINAFSEIDKALILLYLEDKKYDEIAETLGISSVNARVKMNRIKKRLKEMINDR | -3.14
HMERDIATKHEVNRTVEAYSDIVKTLNLPSHKINLVEISFFNILKRSKPSPRENSILLGLAQKIKLHLEKK | -0.737
HMSGTFIGGELVKPGEPLTPMQRAAITMGLQMGNTYSPEIMEKYNNAGGSPSKEEFENYQKNKS | 0.216
HMTGRVKWYDATKGFGFVTSDEGGDVFLPKGALPAGVADLKTGQRIEFGVVDSRKGAQALGVK | 0.352
